Measured values from patent US20090098103A1.

Biological target: Human Recombinant TFPI (R&D Systems) (human) (UniProt P10646)
Assay: SPR (Biacore T100), TFPI on CM5 chip, 320 nM FVIIa + 620 nM sTF; 293-F cells

UniProt P10646, sequence (P10646 29-282): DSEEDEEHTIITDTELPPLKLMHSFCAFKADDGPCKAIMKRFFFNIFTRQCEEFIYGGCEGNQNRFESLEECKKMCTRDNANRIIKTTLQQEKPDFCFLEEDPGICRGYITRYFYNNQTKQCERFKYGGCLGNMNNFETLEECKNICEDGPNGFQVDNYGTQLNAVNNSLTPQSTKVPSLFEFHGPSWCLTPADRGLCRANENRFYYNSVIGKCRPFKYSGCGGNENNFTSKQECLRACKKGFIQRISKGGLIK

Q: “FVIIa variant CB608 G237V (from UniProt P08709 61-466) (enzyme)” was tested. Which Binding (wt/variant) did it give?
A: 2.2

Q: What about the Dissociation (wt/variant) of the same substance?
A: 1.8

Q: “FVIIa variant CB693 K197E/K199E/G237V/M298Q/K341Q (from UniProt P08709 61-466) (enzyme)” was tested. Which Binding (wt/variant) did it give?
A: 23.4

Q: What about the Dissociation (wt/variant) of the same substance?
A: 43.5

Q: With “FVIIa variant CB558 K197E (from UniProt P08709 61-466) (enzyme)” as the substance, how does the Binding (wt/variant) read?
A: 1.4

Q: What about the Dissociation (wt/variant) of the same substance?
A: 1.3

Q: “FVIIa variant CB637 K197E/K341Q (from UniProt P08709 61-466) (enzyme)” was tested. Which Binding (wt/variant) did it give?
A: 67.2

Q: What about the Dissociation (wt/variant) of the same substance?
A: 171

Q: What does the source list for “FVIIa variant CB733 K341N (from UniProt P08709 61-466) (enzyme)”?
A: Binding (wt/variant): 11.3; Dissociation (wt/variant): 63.8

Q: What does the source list for “FVIIa variant CB699 R290K (from UniProt P08709 61-466) (enzyme)”?
A: Binding (wt/variant): 0.7; Dissociation (wt/variant): 0.7

Q: Which results are given for “wild-type Factor VII polypeptide (CB553-02), activated (FVIIa) (from UniProt P08709 61-466) (enzyme)”?
A: Binding (wt/variant): 1; Dissociation (wt/variant): 1

Q: How did the Binding (wt/variant) turn out when “FVIIa variant CB694 K199E/K341Q (from UniProt P08709 61-466) (enzyme)” was run?
A: 18.8

Q: What about the Dissociation (wt/variant) of the same substance?
A: 30.7

Q: “FVIIa variant CB696 G237V/M298Q/K341Q (from UniProt P08709 61-466) (enzyme)” was tested. Which Binding (wt/variant) did it give?
A: 4.5

Q: What about the Dissociation (wt/variant) of the same substance?
A: 6

Q: What does the source list for “FVIIa variant CB592 M298Q (from UniProt P08709 61-466) (enzyme)”?
A: Binding (wt/variant): 1.9; Dissociation (wt/variant): 1.8

Q: Which results are given for “FVIIa variant CB697 R290N (from UniProt P08709 61-466) (enzyme)”?
A: Binding (wt/variant): 1.6; Dissociation (wt/variant): 1.5

Q: What does the source list for “FVIIa variant CB701 R290V (from UniProt P08709 61-466) (enzyme)”?
A: Binding (wt/variant): 2.6; Dissociation (wt/variant): 2.7

Q: How did the Binding (wt/variant) turn out when “FVIIa variant CB692 K197E/G237V/M298Q/K341Q (from UniProt P08709 61-466) (enzyme)” was run?
A: 15.9

Q: And the Dissociation (wt/variant)?
A: 21.5

Q: Which Binding (wt/variant) does the source give for “FVIIa variant CB902 K197E/M298Q (from UniProt P08709 61-466) (enzyme)” here?
A: 2.6

Q: What about the Dissociation (wt/variant) of the same substance?
A: 2.3

Q: Which results are given for “FVIIa variant CB700 R290M (from UniProt P08709 61-466) (enzyme)”?
A: Binding (wt/variant): 1.1; Dissociation (wt/variant): 1.1

Q: Which Binding (wt/variant) does the source give for “FVIIa variant CB691 K197E/K199E/K341Q (from UniProt P08709 61-466) (enzyme)” here?
A: 33.9

Q: What about the Dissociation (wt/variant) of the same substance?
A: 68.1

Q: How did the Binding (wt/variant) turn out when “FVIIa variant CB695 G237V/M298Q (from UniProt P08709 61-466) (enzyme)” was run?
A: 0.9

Q: And the Dissociation (wt/variant)?
A: 0.8

Q: What does the source list for “FVIIa variant CB688 K197E/K199E (from UniProt P08709 61-466) (enzyme)”?
A: Binding (wt/variant): 2.2; Dissociation (wt/variant): 2.1

Q: With “FVIIa variant CB735 K341D (from UniProt P08709 61-466) (enzyme)” as the substance, how does the Binding (wt/variant) read?
A: 186

Q: And the Dissociation (wt/variant)?
A: 381

Q: How did the Binding (wt/variant) turn out when “FVIIa variant CB698 R290Q (from UniProt P08709 61-466) (enzyme)” was run?
A: 1.3

Q: And the Dissociation (wt/variant)?
A: 1.2

Q: How did the Binding (wt/variant) turn out when “FVIIa variant CB563 K199E (from UniProt P08709 61-466) (enzyme)” was run?
A: 1.4

Q: And the Dissociation (wt/variant)?
A: 1.4

Q: “FVIIa variant CB670 G237V/K341Q (from UniProt P08709 61-466) (enzyme)” was tested. Which Binding (wt/variant) did it give?
A: 12.8

Q: And the Dissociation (wt/variant)?
A: 12.4

Q: For “FVIIa variant CB671 K197E/G237V/K341Q (from UniProt P08709 61-466) (enzyme)”, which Binding (wt/variant) is on record?
A: 18.9

Q: And the Dissociation (wt/variant)?
A: 21.8

Q: For “FVIIa variant CB609 K341Q (from UniProt P08709 61-466) (enzyme)”, which Dissociation (wt/variant) is on record?
A: 19.7

Q: What does the source list for “FVIIa variant CB689 K197E/G237V (from UniProt P08709 61-466) (enzyme)”?
A: Binding (wt/variant): 1.8; Dissociation (wt/variant): 1.6

Q: For “FVIIa variant CB593 V158D/E296V/M298Q (from UniProt P08709 61-466) (enzyme)”, which Binding (wt/variant) is on record?
A: 0.8

Q: And the Dissociation (wt/variant)?
A: 0.8

Q: With “FVIIa variant CB945 M298Q/K341D (from UniProt P08709 61-466) (enzyme)” as the substance, how does the Binding (wt/variant) read?
A: 147

Q: And the Dissociation (wt/variant)?
A: 196

Q: What does the source list for “FVIIa variant CB734 K341M (from UniProt P08709 61-466) (enzyme)”?
A: Binding (wt/variant): 4.9; Dissociation (wt/variant): 5.4

Biological target: Human Recombinant TFPI (R&D Systems) (human) (UniProt P10646)
Assay: SPR (Biacore T100), TFPI on CM5 chip, 320 nM FVIIa + 620 nM sTF; BHK-21 cells

Q: With “FVIIa variant CB855 G237T238insV (from UniProt P08709 61-466) (enzyme)” as the substance, how does the Binding (wt/variant) read?
A: 7.3

Q: And the Dissociation (wt/variant)?
A: 16.8

Q: “FVIIa variant CB864 K197I198insE (from UniProt P08709 61-466) (enzyme)” was tested. Which Binding (wt/variant) did it give?
A: 1.3

Q: And the Dissociation (wt/variant)?
A: 1.1

Q: How did the Binding (wt/variant) turn out when “FVIIa variant CB858 D196K197insK (from UniProt P08709 61-466) (enzyme)” was run?
A: 1

Q: And the Dissociation (wt/variant)?
A: 0.8

Q: What does the source list for “FVIIa variant CB867 K197I198insS (from UniProt P08709 61-466) (enzyme)”?
A: Binding (wt/variant): 0.7; Dissociation (wt/variant): 0.6

Q: Which Binding (wt/variant) does the source give for “FVIIa variant CB857 G237T238insSA (from UniProt P08709 61-466) (enzyme)” here?
A: 21.5

Q: What about the Dissociation (wt/variant) of the same substance?
A: 146

Q: For “wild-type Factor VII polypeptide (CB553-02), activated (FVIIa) (from UniProt P08709 61-466) (enzyme)”, which Binding (wt/variant) is on record?
A: 1

Q: And the Dissociation (wt/variant)?
A: 1

Q: How did the Binding (wt/variant) turn out when “FVIIa variant CB862 D196K197insA (from UniProt P08709 61-466) (enzyme)” was run?
A: 0.5

Q: What about the Dissociation (wt/variant) of the same substance?
A: 0.4

Q: Which results are given for “FVIIa variant CB856 G237T238insAS (from UniProt P08709 61-466) (enzyme)”?
A: Binding (wt/variant): 22.8; Dissociation (wt/variant): 154

Q: How did the Binding (wt/variant) turn out when “FVIIa variant CB865 K197I198insY (from UniProt P08709 61-466) (enzyme)” was run?
A: 1.1

Q: What about the Dissociation (wt/variant) of the same substance?
A: 1

Q: With “FVIIa variant CB854 G237T238insS (from UniProt P08709 61-466) (enzyme)” as the substance, how does the Binding (wt/variant) read?
A: 5.2

Q: What does the source list for “FVIIa variant CB863 D196K197insM (from UniProt P08709 61-466) (enzyme)”?
A: Binding (wt/variant): 0.4; Dissociation (wt/variant): 0.4

Q: How did the Binding (wt/variant) turn out when “FVIIa variant CB853 G237T238insA (from UniProt P08709 61-466) (enzyme)” was run?
A: 6.5

Q: And the Dissociation (wt/variant)?
A: 18.2

Q: Which results are given for “FVIIa variant CB859 D196K197insR (from UniProt P08709 61-466) (enzyme)”?
A: Binding (wt/variant): 0.5; Dissociation (wt/variant): 0.5

Q: What does the source list for “FVIIa variant CB593 V158D/E296V/M298Q (from UniProt P08709 61-466) (enzyme)”?
A: Binding (wt/variant): 1; Dissociation (wt/variant): 1
